Test results as given in patent US20260242478A1 (published 2026).
Where no end group is shown, it is not given here.

B1: Phage-2490 (peptide)
peptide: DFKWCTPPWMCDVF
notes: Clonal phage of the peptide-180 library; not shown: pIII filament protein of the bacteriophage to which the peptide is fused
B2: Phage-2497 (peptide)
peptide: WPKLCTPPWMCTVD
modifications: cysteine pairing not given here; also: displayed on phage as fusion to pIII, pIII and linker sequence not given here
notes: not shown: fused to pIII of the bacteriophage
B3: Phage-2449 (peptide)
peptide: EEPWCIPSWMCALT
modifications: cysteine pairing not given here; also: displayed as fusion to phage pIII
B4: Phage-2499 (peptide)
peptide: GEKWCIPEWMCQDV
modifications: cysteine pairing not given here; also: displayed on phage as fusion to pIII, pIII and linker sequence not given here
notes: as for B2
B5: Phage-2483 (peptide)
peptide: DSRWCIPDWMCELE
notes: as for B1
B6: Phage-2491 (peptide)
peptide: SVKWCTPSWMCEHM
notes: as for B1
B7: Phage-2484 (peptide)
peptide: LVRWCVPEWMCAGM
modifications: cysteine pairing not given here; also: displayed on phage as fusion to pIII, pIII and linker sequence not given here
notes: as for B1
B8: Phage-2445 (peptide)
peptide: LERWCIPSWMCTED
B9: Phage-2444 (peptide)
peptide: EVKWCIPAWMCVED
B10: Phage-2495 (peptide)
peptide: LEKWCIPLWMCQTA
notes: as for B1
B11: Phage-2500 (peptide)
peptide: GTNWCKPDWMCVGL
modifications: cysteine pairing not given here; also: displayed on phage as fusion to pIII, pIII and linker sequence not given here
notes: as for B2
B12: Phage-2486 (peptide)
peptide: FPHLCIPYWMCVRT
notes: as for B1
B13: Phage-2494 (peptide)
peptide: HFKMCVPPWMCLFD
notes: as for B1
B14: Phage-2448 (peptide)
peptide: ESKWCIPEWMCEQR
B15: Phage-2446 (peptide)
peptide: YEKWCTPTWMCSWL
B16: Phage-2485 (peptide)
peptide: VSPLCKPDWMCNGF
notes: as for B1
B17: Phage-2496 (peptide)
peptide: ESRLCIPAWMCESQ
notes: as for B1
B18: Phage-2489 (peptide)
peptide: WAKWCTPEWMCVVH
notes: as for B1
B19: Phage-2498 (peptide)
peptide: GEHWCIPAWMCEKM
modifications: cysteine pairing not given here; also: displayed on phage as fusion to pIII, pIII and linker sequence not given here
notes: as for B2
B20: Phage-2447 (peptide)
peptide: IEKWCTPPWMCLDH
B21: Phage-2488 (peptide)
peptide: VSIWCIPPWMCVEK
notes: as for B1
B22: Phage-2493 (peptide)
peptide: MGNWCTPPWMCTGF
notes: as for B1
B23: Phage-2482 (peptide)
peptide: VVNWCTPAWMCSGF
modifications: cysteine pairing not given here; also: displayed on phage as fusion to pIII, pIII and linker sequence not given here
notes: as for B1
B24: Phage-2492 (peptide)
peptide: IEKMCIPAWMCTDK
notes: as for B1
B25: Phage-2487 (peptide)
peptide: DYKWCTPIWMCAGD
modifications: cysteine pairing not given here; also: displayed on phage as fusion to pIII, pIII and linker sequence not given here
notes: as for B1
B26: Phage-2450 (peptide)
peptide: VVKWCTPPWMCSVW

Key:
[1] = biological target: T1, 006 PSMA Fab; experiment: phage ELISA: biotinylated PSMA Fab on neutravidin plate pre-incubated with PSMA antigen (competitor), clonal phage supernatant, anti-M13-HRP detection
T1 construct: also called Anti-PSMA Fab; anti-PSMA Fab
Procedure: (§1) Clonal phage were harvested as crude supernatants and screened via standard ELISAs. […] Prior to the addition of clonal phage. wells were incubated with blocking buffer and PSMA antigen or blocking buffer alone. Without washing or aspirating, clonal phage supernatants were then added to the wells and incubated for a short time. Wells were then washed followed by detection of bound phage using a horse radish conjugated anti-M13 antibody.

[2] = biological target: T1, 006 PSMA Fab; experiment: phage ELISA: biotinylated PSMA Fab on neutravidin plate, clonal phage supernatant, anti-M13-HRP detection; blocking buffer alone
Procedure: as §1

[3] = biological target: T2, 006 PSMA Fab (biotinylated (site not given)); experiment: clonal phage ELISA on plate-bound PSMA Fab, competitor: PSMA antigen pre-incubated in the wells
T2 construct: Biotinylated PSMA Fab captured on neutravidin coated plates for the clonal phage ELISA; also called Anti-PSMA Fab

[4] = biological target: T2, 006 PSMA Fab; experiment: clonal phage ELISA, biotinylated PSMA Fab on neutravidin plate, anti-M13 HRP detection;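 further: crude clonal phage supernatants added to wells pretreated with blocking buffer either with or without PSMA antigen, bound phage read after washing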
Procedure: as §1

[5] = biological target: T3, PSMA Fab (biotinylated (site not stated)); experiment: clonal phage ELISA; biotinylated PSMA Fab on neutravidin plate pre-incubated with PSMA antigen as competitor; anti-M13 HRP detection;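 further: crude clonal phage supernatants briefly incubated on wells preloaded with PSMA antigen in blocking buffer, or buffer only as control, bound phage detected with HRP-conjugated anti-M13 antibody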
T3 construct: Biotinylated PSMA Fab captured on neutravidin plates in the phage ELISA; also called Anti-PSMA Fab; 006 PSMA Fab

[6] = biological target: T3, PSMA Fab; experiment: clonal phage ELISA; biotinylated PSMA Fab on neutravidin plate; anti-M13 HRP detection; blocking buffer alone
Procedure: as §1

Row | Binder | phage binding ELISA signal in presence of PSMA antigen [1] | phage binding ELISA signal [2] | other results
1 | B1 | 0.0763 | 1.22 | –
2 | B2 | – | – | Phage binding ELISA signal, Anti-PSMA Fab in presence of PSMA [3]: 0.0722; Phage binding ELISA signal, Anti-PSMA Fab [4]: 1.21
3 | B3 | – | – | Phage binding ELISA signal, Anti-PSMA Fab in presence of PSMA [5]: 0.0689; Phage binding ELISA signal, Anti-PSMA Fab [6]: 1.29
4 | B4 | – | – | Phage binding ELISA signal, Anti-PSMA Fab in presence of PSMA [3]: 0.0722; Phage binding ELISA signal, Anti-PSMA Fab [4]: 1.21
5 | B5 | 0.0935 | 1.23 | –
6 | B6 | 0.0739 | 1.22 | –
7 | B7 | 0.0945 | 1.22 | –
8 | B8 | – | – | Phage binding ELISA signal, Anti-PSMA Fab in presence of PSMA [5]: 0.0674; Phage binding ELISA signal, Anti-PSMA Fab [6]: 1.3
9 | B9 | – | – | Phage binding ELISA signal, Anti-PSMA Fab in presence of PSMA [5]: 0.0892; Phage binding ELISA signal, Anti-PSMA Fab [6]: 1.3
10 | B10 | 0.0777 | 1.22 | –
11 | B11 | – | – | Phage binding ELISA signal, Anti-PSMA Fab in presence of PSMA [3]: 0.0855; Phage binding ELISA signal, Anti-PSMA Fab [4]: 1.21
12 | B12 | 0.198 | 1.22 | –
13 | B13 | 0.101 | 1.22 | –
14 | B14 | – | – | Phage binding ELISA signal, Anti-PSMA Fab in presence of PSMA [5]: 0.0688; Phage binding ELISA signal, Anti-PSMA Fab [6]: 1.29
15 | B15 | – | – | Phage binding ELISA signal, Anti-PSMA Fab in presence of PSMA [5]: 0.218; Phage binding ELISA signal, Anti-PSMA Fab [6]: 1.29
16 | B16 | 0.0787 | 1.22 | –
17 | B17 | 0.0772 | 1.22 | –
18 | B18 | 0.15 | 1.22 | –
19 | B19 | – | – | Phage binding ELISA signal, Anti-PSMA Fab in presence of PSMA [3]: 0.0615; Phage binding ELISA signal, Anti-PSMA Fab [4]: 1.21
20 | B20 | – | – | Phage binding ELISA signal, Anti-PSMA Fab in presence of PSMA [5]: 0.0663; Phage binding ELISA signal, Anti-PSMA Fab [6]: 1.29
21 | B21 | 0.101 | 1.22 | –
22 | B22 | 0.0704 | 1.22 | –
23 | B23 | 0.0652 | 1.23 | –
24 | B24 | 0.0698 | 1.22 | –
25 | B25 | 0.0707 | 1.22 | –
26 | B26 | – | – | Phage binding ELISA signal, Anti-PSMA Fab in presence of PSMA [5]: 0.104; Phage binding ELISA signal, Anti-PSMA Fab [6]: 1.29
